Patent US20170121416A1 (AbbVie / Abbott, published 2017)

How the values were obtained:
[1] = target: T1, Nectin-4 on cells (MCF-7, SKBR3) (UniProt Q96NY8 32-510, limits assumed); assay: cell-based or functional assay
T1 sequence (looked up): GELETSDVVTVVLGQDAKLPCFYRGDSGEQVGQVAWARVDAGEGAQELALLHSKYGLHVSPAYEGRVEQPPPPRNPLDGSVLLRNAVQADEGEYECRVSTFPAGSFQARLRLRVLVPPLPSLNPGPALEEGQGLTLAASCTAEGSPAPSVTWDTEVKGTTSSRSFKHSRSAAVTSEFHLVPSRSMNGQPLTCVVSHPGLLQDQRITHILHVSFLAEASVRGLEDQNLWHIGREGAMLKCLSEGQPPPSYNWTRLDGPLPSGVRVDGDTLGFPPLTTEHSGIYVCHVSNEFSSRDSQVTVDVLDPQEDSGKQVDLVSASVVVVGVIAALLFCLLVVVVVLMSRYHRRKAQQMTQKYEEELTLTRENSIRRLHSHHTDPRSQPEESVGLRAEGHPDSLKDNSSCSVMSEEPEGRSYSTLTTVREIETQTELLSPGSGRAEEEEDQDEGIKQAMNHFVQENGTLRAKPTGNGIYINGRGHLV

[2] = target: T2, human CD324 on cells (MCF7, BR22, NTX tumor cells, 293-hCD324) (human, UniProt P12830 155-882); assay: cell-based or functional assay
T2 sequence: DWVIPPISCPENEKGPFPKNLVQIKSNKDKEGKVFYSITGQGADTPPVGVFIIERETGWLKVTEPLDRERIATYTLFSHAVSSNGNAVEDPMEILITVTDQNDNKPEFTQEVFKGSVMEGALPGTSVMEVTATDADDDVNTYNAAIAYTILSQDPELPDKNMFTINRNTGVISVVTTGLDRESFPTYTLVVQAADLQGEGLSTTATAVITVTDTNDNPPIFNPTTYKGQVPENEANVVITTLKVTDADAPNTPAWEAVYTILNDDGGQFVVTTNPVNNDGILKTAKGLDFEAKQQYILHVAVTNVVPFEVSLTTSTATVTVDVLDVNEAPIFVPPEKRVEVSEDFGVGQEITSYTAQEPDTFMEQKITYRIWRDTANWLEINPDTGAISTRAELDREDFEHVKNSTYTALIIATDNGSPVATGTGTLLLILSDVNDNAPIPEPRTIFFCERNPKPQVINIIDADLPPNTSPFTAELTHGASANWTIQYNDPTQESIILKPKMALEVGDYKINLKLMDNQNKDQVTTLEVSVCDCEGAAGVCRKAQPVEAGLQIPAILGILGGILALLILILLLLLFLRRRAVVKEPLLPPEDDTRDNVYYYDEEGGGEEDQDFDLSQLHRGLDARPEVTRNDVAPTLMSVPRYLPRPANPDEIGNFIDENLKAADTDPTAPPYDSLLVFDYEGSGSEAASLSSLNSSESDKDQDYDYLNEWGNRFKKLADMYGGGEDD

[3] = target: T2, human CD324 on cells (MCF7, BR22, NTX …); assay: cell-based or functional assay; remark: listed apart in the source
[4] = target: T2, human CD324 on cells (MCF7, BR22, NTX …); assay: cell-based or functional assay; remark: listed apart in the source
[5] = target: T3, Nectin-4 protein (R&D Systems) (UniProt Q96NY8 32-349); assay: bridging ELISA: Nectin-4 coated, detection with biotinylated CD324 W2A and streptavidin-HRP
T3 construct: bought; coated on the plate of the bridging ELISA
T3 sequence (looked up): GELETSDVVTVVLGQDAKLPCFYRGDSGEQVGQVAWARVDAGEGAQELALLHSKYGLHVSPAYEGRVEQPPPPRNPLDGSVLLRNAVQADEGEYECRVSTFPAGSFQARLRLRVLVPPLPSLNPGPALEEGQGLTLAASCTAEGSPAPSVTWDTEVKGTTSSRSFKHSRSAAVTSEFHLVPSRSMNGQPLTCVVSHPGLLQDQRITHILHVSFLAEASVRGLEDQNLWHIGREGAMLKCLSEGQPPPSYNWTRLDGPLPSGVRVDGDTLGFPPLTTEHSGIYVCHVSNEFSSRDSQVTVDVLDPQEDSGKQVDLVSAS

[6] = target: T4, human CD324-His recombinant protein (Sino Biological, Inc.) (human, UniProt P12830 155-709); assay: SPR (Biacore), similar experiments as for murine SC10.17; humanized antibody
T4 construct: bought soluble protein; The antigen of the Biacore experiment is only called human CD324 antigen; also called hCD324-His; human CD324 antigen; not shown: His tag
T4 sequence: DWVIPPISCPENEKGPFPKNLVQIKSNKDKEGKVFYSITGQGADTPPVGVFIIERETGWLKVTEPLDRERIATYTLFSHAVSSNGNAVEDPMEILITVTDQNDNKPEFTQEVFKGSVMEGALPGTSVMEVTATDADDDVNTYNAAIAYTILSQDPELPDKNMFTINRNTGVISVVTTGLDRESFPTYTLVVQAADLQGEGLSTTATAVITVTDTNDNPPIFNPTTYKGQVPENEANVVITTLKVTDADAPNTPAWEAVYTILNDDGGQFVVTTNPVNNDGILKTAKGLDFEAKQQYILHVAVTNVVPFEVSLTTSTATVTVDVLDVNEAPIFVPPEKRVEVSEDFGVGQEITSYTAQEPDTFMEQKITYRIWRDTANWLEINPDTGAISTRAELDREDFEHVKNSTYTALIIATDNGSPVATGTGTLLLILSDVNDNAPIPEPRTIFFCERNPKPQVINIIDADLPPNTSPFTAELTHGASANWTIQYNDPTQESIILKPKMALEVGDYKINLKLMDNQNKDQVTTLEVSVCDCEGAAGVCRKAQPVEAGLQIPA

binding result [5]: no binding
Kd [6]: 3800 pM
B1: hSC10.17 (antibody, V domains shown)
VH: EVQLVESGGGLVQPGGSLRLSCAASGFTFSSYGMHWVRQAPGKGLEWVAYITTRSSTIYYADSVKGRFTISRDNAKNSLYLQMNSLRAEDTAVYYCTREPLTGYYAMDYWGQGTSVTVSS
VL: DVVMTQSPLSLPVTLGQPASISCRSSQSIVHSDGNTYLEWYQQRPGQSPRRLIYKVSNRFSGVPDRFSGSGSGTDFTLKISRVEAEDVGVYYCFQGSHAPWTFGGGTKVEIK
notes: humanized (CDR-grafted) SC10.17; also called humanized SC10.17 mAb; hSC10.17 IgG
IC50 on SKBR3 (pM), in vitro killing with anti-human IgG Fab-saporin [1]: > 1000 pM
IC50 on 293-hCD324 (pM), in vitro killing with anti-human IgG Fab-saporin [2]: 0.27 pM
IC50 on MCF-7 (pM), in vitro killing with anti-human IgG Fab-saporin [2]: 3.1 pM
EC50 of killing of MCF7 cells, anti-human Fab-saporin assay [3]: 4.4 pM
EC50 (MCF7, Fab-saporin killing) [4]: 4.44 pM
